Experimental data published in patent US20240101668A1 (WUGEN, published 2024).
Changes are numbered by the printed parent chain.

B1: Polypeptide No. 32 (scFv, V domains shown)
VH: EVQLLESGGGLVQPGGSLRLSCAASGFTFSSYGMHWVRQAPGKGLEWVSSISGSGDTTYYADSVKGRFTISRDNSKNTLYLQMNSLRAEDTAVYYCARDNPYGDYGGSFDYWGQGTLVTVSS
VL: EIVMTQSPATLSVSPGERATLSCRASQSVSSSYLAWYQQKPGQAPRLLIYATSTRATGIPARFSGSGSGTEFTLTISSLQSEDFAVYYCQQYGSLPLTFGQGTKVEIKR
notes: scFv
B2: Polypeptide No. 35 (scFv, V domains shown)
VH: QVQLVQSGAEVKKPGASVKVSCKASGYTFTDYYMHWVRQAPGQGLEWMGIINPSGGSTRYAQKFQGRVTMTRDTSTSTVYMELSSLRSEDTAVYYCARVDGRRWLRSDYWGQGTLVTVSS
VL: DIQMTQSPSSLSASVGDRVTITCRASQGIRNDLAWYQQKPGKAPKLLIYAASTLQNGVPSRFSGSGSGTDFTLTISSLQPEDFATYYCQQSYSTPWTFGQGTKVEIKR
notes: scFv
B3: Polypeptide No. 42 (scFv, V domains shown)
VH: QVQLVQSGAEVKKPGASVKVSCKASGYTFTDYFMHWVRQAPGQGLEWMGWINPNSGNTGYAQKFQGRVTMTRDTSTSTVYMELSSLRSEDTAVYYCARLNDYGDYGGPATLDYWGQGTLVTVSS
VL: B2 VL with R30S, D32N, A34N, T53S, N56S, W96P, V104L
notes: scFv
B4: Polypeptide No. 40 (scFv, V domains shown)
VH: QVQLVQSGAEVKKPGASVKVSCKASGYTFTDYHMHWVRQAPGQGLEWMGWMSPNSGNTGYAQNFQGRVTMTRDTSTSTVYMELSSLRSEDTAVYYCARADYYGSDYVKFDYWGQGTLVTVSS
VL: B2 VL with A25V, R30S, N31S, D32Y, A34N, A50E, Q55E, N56S, S91G, W96P
notes: scFv
B5: Polypeptide No. 36 (scFv, V domains shown)
VH: QVQLVQSGAEVKKPGASVKVSCKASGGTFSSYAISWVRQAPGQGLEWLGIISPSGRSAGYGRKFQGRVTMTRDTSTSTVYMELSSLRSEDTAVYYCARTDYGGHKWYFDLWGRGTLVTVSS
VL: B2 VL with R24Q, R30N, D32Y, A34N, N56R, S93Q, W96L, Q100G
notes: scFv
B6: Polypeptide No. 41 (scFv, V domains shown)
VH: QVQLVQSGAEVKKPGASVKVSCKASGYTFPNYGISWVRQAPGQGLEWMGWINPNSGGTKYAQRFQGRVTMTRDTSTSTVYMELSSLRSEDTAVYYCARDRDILTGYYHFDYWGQGTLVTVSS
VL: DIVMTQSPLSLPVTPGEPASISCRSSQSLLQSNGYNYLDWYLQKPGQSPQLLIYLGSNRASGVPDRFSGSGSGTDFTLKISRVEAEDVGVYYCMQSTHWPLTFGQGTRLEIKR
notes: scFv
B7: Polypeptide No. 33 (scFv, V domains shown)
VH: QVQLVQSGAEVKKPGASVKVSCKASGYTFTSYYMHWVRQAPGQGLEWMGIIDPSGGSTNYAQKFQGRVTMTRDTSTSTVYMELSSLRSEDTAVYYCARDYYGSGSYYGLDYWGRGTLVTVSS
VL: DIQMTQSPSSLSASVGDRVTITCRASQGISNNLNWYQQKPGKAPKLLIYDASNLETGVPSRFSGSGSGTDFTLTISSLQPEDFATYYCQQANSFPLTFGPGTKVDIKR
notes: scFv
B8: Polypeptide No. 39 (scFv, V domains shown)
VH: EVQLLESGGGLVQPGGSLRLSCAASGFTFRNYGMGWVRQAPGKGLEWVSAISGSGGSTYYADSVKGRFTISRDNSKNTLYLQMNSLRAEDTAVYYCARVKFYGMDVWGQGTTVTVSS
VL: B7 VL with N32D, N34A, D50G, L96F
notes: scFv

Tests used:
[1] = target: T1, huCD33-G69-Fc recombinant protein (human, UniProt P20138 18-259); assay: BLI
T1 construct: extracellular domain; also called CD33 R69G
Procedure: (§1) Discovered scFvs were analyzed for binding to huCD33-R69-His or huCD33-G69-Fc recombinant proteins (for anti-CD33 scFvs; for CLL-1 scFvs, huCLL1-K244-Avi-Tev-His or huCLL1-Q244-Avi-Tev-His were used; for FLT3, huFLT3-T227-His or huFLT3-M227-Fc were used) using BLI on a ForteBio Octet HTX instrument. Streptavidin-coated biosensors were loaded with biotinylated anti-V5 tag monoclonal antibody for 5 min and were then quenched and blocked with 20 μM amine-PEG2-Biotin for 5 min. scFvs were captured on biosensors from scFv clone periplasmic extracts. huCD33 (or huCLL-1, or huFLT3) proteins were then associated with the captured scFvs for 2 minutes, followed by dissociation with buffer (1×HBST [10 mM HEPES pH 7.4, 150 mM NaCl, 0.05% Tween-20], 1 g/L BSA) for 5 minutes. […] Data was fitted with 1:1 Langmuir equation and off-rate values were reported.

[2] = target: T2, huCD33-R69-His recombinant protein (human, UniProt P20138 18-259); assay: BLI
T2 construct: extracellular domain
Procedure: as §1

[3] = target: T3, huCD33-R69 stably expressed on Jurkat cells (human, UniProt P20138 18-364); assay: FACS on cells;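 further: fixed Jurkat cells bearing either CD33 variant, barcoded by dye, exposed to myc-tagged scFv periplasmic extracts, detected with anti-myc PE antibody and read by flow cytometry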
T3 construct: whole, on cells; >200,000 receptors per cell; also called CD33 WT; CD33^ARG69

[4] = target: T4, huCD33-G69 stably expressed on Jurkat cells (human, UniProt P20138 18-364); assay: FACS on cells;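 further: fixed Jurkat cells bearing either CD33 variant, barcoded by dye, exposed to myc-tagged scFv periplasmic extracts, detected with anti-myc PE antibody and read by flow cytometry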
T4 construct: whole, on cells; >200,000 receptors per cell; also called CD33 Mutant; CD33 R69G
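Wherever result is given: scFvs from periplasmic extracts captured on biosensors via anti-V5 antibody, exposed to recombinant huCD33 variants for 2 min, 5 min dissociation, scored as binding, no binding or ambiguous.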

T2 sequence (P20138 18-259): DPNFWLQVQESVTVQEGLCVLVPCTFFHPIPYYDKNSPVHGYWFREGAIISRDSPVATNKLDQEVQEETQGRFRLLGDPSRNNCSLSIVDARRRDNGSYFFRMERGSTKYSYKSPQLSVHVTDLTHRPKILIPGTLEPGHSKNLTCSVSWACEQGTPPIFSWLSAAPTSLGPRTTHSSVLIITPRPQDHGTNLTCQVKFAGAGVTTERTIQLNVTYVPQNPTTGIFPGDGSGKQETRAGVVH
T3 sequence (P20138 18-364): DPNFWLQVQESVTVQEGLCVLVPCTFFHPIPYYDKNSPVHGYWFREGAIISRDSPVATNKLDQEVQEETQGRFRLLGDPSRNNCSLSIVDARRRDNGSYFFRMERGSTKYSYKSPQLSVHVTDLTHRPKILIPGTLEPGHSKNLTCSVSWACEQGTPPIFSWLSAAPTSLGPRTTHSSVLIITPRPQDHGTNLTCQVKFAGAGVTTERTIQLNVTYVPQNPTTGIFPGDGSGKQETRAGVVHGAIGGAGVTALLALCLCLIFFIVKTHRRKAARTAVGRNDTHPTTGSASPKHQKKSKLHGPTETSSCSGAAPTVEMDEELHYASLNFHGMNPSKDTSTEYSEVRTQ
T1 sequence (P20138 18-259 R69G): as the sequence (P20138 18-259) above, with R52G counted along it
T4 sequence (P20138 18-364 R69G): as the sequence (P20138 18-364) above, with R52G counted along it

Binder | binding result [1] | binding result [2] | geometric mean MFI fold change over Jurkat parental [3] | geometric mean MFI fold change over Jurkat parental [4]
B1 | binds | no binding | < 2 fold | 10 to 30 fold
B2 | binds | no binding | < 2 fold | 2 to 10 fold
B3 | binds | no binding | < 2 fold | 10 to 30 fold
B4 | binds | no binding | < 2 fold | 10 to 30 fold
B5 | binds | no binding | < 2 fold | 2 to 10 fold
B6 | binds | no binding | < 2 fold | 2 to 10 fold
B7 | binds | no binding | < 2 fold | > 30 fold
B8 | binds | no binding | < 2 fold | 10 to 30 fold
